Reference: patent publication US7153676B1, “Transacylases of the paclitaxel biosynthetic pathway” (priority 1999, dated 2006)
Values joined by “and” are separate entries in the source; they are usually repeats but may differ in a detail not shown here. Equal values may be shown once.

B1: TAX1: full-length clone, SEQ ID NO: 27/28; encodes Taxus taxadienol acetyl transacylase (protein)
chain: MEKTDLHVNLIEKVMVGPSPPLPKTTLQLSSIDNLPGVRGSIFNALLIYNASPSPTMISADPAKPIREALAKILVYYPPFAGRLRETENGDLEVECTGEGAMFLEAMADNELSVLGDFDDSNPSFQQLLFSLPLDTNFKDLSLLVVQVTRFTCGGFVVGVSFHHGVCDGRGAAQFLKGLAEMARGEVKLSLEPIWNRELVKLDDPKYLQFFHFEFLRAPSIVEKIVQTYFIIDFETINYIKQSVMEECKEFCSSFEVASAMTWIARTRAFQIPESEYVKILFGMDMRNSFNPPLPSGYYGNSIGTACAVDNVQDLLSGSLLRAIMIIKKSKVSLNDNFKSRAVVKPSELDVNMNHENVVAFADWSRLGFDEVDFGWGNAVSVSPVQQQSALAMQNYFLFLKPSKNKPDGIKILMFLPLSKMKSFKIEMEAMMKKYVAKV
B2: TAX6: full-length clone, SEQ ID NO: 44/45; 10-deacetylbaccatin III-10-O-acetyl transferase (protein, listed as Taxus cuspidata)
chain: MAGSTEFVVRSLERVMVAPSQPSPKAFLQLSTLDNLPGVRENIFNTLLVYNASDRVSVDPAKVIRQALSKVLVYYSPFAGRLRKKENGDLEVECTGEGALFVEAMADTDLSVLGDLDDYSPSLEQLLFCLPPDTDIEDIHPLVVQVTRFTCGGFVVGVSFCHGICDGLGAGQFLIAMGEMARGEIKPSSEPIWKRELLKPEDPLYRFQYYHFQLICPPSTFGKIVQGSLVITSETINCIKQCLREESKEFCSAFEVVSALAWIARTRALQIPHSENVKLIFAMDMRKLFNPPLSKGYYGNFVGTVCAMDNVKDLLSGSLLRVVRIIKKAKVSLNEHFTSTIVTPRSGSDESINYENIVGFGDRRRLGFDEVDFGWGHADNVSLVQHGLKDVSVVQSYFLFIRPPKNNPDGIKILSFMPPSIVKSFKFEMETMTNKYVTKP

Legend:
[1] = target: T1, taxadienol acetyl transacylase (TAX1) (Taxus cuspidata, UniProt Q9M6F0); assay: recombinant TAX1 expressed in E. coli JM109, taxadienol acetyl transacylase assay; type: biochemical; settings: cell-free extract, radiochemical analysis
T1 construct: Full-length insert fragments of the relevant plasmids are excised and subcloned in-frame into the expression vector pCWori+; made in house; host or cells: E. coli JM109 (pCWori+)
T1 sequence (Q9M6F0 1-439): B1 chain
Experimental: To determine the identity of the putative taxadienol acetyl transacylase, TAX1 (SEQ ID NO: 28), TAX2 (SEQ ID NO: 26), and TAX6 (SEQ ID NO: 45) were subcloned in-frame into the expression vector pCWori+ (Barnes, Methods Enzymol. 272:3–14, 1996) and expressed in E. coli JM109 cells. The transformed bacteria were cultured and induced with isopropyl β-D-thiogalactoside (IPTG), and cell-free extracts were prepared and evaluated for taxadienol acetyl transacylase activity using the previously developed assay procedures (Walker et al., Arch. Biochem. Biophys. 364:273–279, 1999). Clone TAX1 (corresponding directly to Probe 1) expressed high levels of taxadienol acetyl transacylase activity (20% conversion of substrate to product), as determined by radiochemical analysis; the product of this recombinant enzyme was confirmed as taxadienyl-5α-yl acetate by gas chromatography-mass spectrometry (GC-MS) (FIGS. 5A–5G). […] Neither of the recombinant proteins expressed from TAX1 (SEQ ID NO: 28) or TAX2 (SEQ ID NO: 26) was capable of acetylating the advanced paclitaxel precursor 10-deacetyl baccatin III to baccatin III. […]

[2] = target: T2, 10-deacetylbaccatin III-10-O-acetyl transferase (TAX6) (Taxus cuspidata, UniProt Q9M6E2); type: biochemical
T2 construct: to amplify the putative full-length acetyl transferase gene and incorporate NdeI and XbaI restriction sites; made in house; host or cells: E. coli JM109 (pCWori+)
T2 sequence (Q9M6E2 1-440): B2 chain
Experimental: For the enzyme preparation, E. coli cells transformed with the pCWori+ vector harboring the putative DBAT gene were grown overnight at 37° C. in 5 mL Luria-Bertani medium supplemented with ampicillin, and 1 mL of this inoculum was added to and grown in 100 mL Terrific Broth culture medium (6 g bacto-tryptone, Difco Laboratories, Spark, Md., 12 g yeast extract, EM Science, Cherryhill, N.J., and 2 mL gycerol in 500 mL water) supplemented with 1 mM IPTG, 1 mM thiamine HCl and 50 μg ampicillin/mL. After 24 hours, the bacteria were harvested by centrifugation, resuspended in 20 mL of assay buffer (25 mM Mopso, pH 7.4) and then disrupted by sonication at 0–4° C. The resulting homogenate was centrifuged at 15,000 g to remove debris, and a 1 mL aliquot of the supernatant was incubated with 10-deacetylbaccatin III (400 μM) and [2-^3H]acetyl coenzyme A (0.45μCi, 400 μM) for 1 hour at 31° C. The reaction mixture was extracted with ether and the solvent concentrated in vacuo. The crude product (pooled from five such assays) was purified by silica gel thin-layer chromatography (TLC; 70:30 ethyl acetate:hexane).
The activity of TAX6 (SEQ ID NO: 45) was assayed under standard conditions described in Walker et al., Arch. Biochem. Biophys.

Molecule	taxadienol acetyl transacylase activity (conversion of substrate to product) [1]	optimum pH [2]	pH at half-maximal velocities [2]
B1	20%		
B2		7.5	6.4 and 7.8
